Test results published in US7700727B2, “Compositions and kits for detecting pathogen infection” (Biokit, S.A., priority 2003, dated 2010).

Assays:
[1] = molecular target: T1, lysozyme (Homo sapiens, UniProt P61626); experiment: Lysozyme binding assay on spotted β-APP fragments with POD-labeled human lysozyme; conditions: 10 μg protein spotted; POD-huLYS diluted 1/1000
T1 sequence (P61626 19-148): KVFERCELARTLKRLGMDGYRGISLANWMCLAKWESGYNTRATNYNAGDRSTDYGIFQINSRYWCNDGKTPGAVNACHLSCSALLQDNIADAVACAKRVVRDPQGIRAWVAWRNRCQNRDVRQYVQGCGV
Method: To test whether the β-APP protein binds huLYS, we performed lysozyme binding assays using purified, recombinant forms of β-APP. Both sAPPα (product number: S9564) and sAPPα (302-612) (product number: S8065) were purchased from Sigma-Aldrich (Tres cantos, Madrid, Spain). 10 μg of each protein was spotted onto a Nytran membrane (Scleicher & Schuiell, Dassel, Germany). Non-specific adsorption sites were blocked by incubation for one hour in TBST-milk. After three washes with TBST, the membrane was incubated for one hour with horse radish peroxidase (POD)-labeled human lysozyme diluted 1/1000 in TBST-milk. Next, the membrane was washed three times, for 5 minutes each wash, with TBST. Staining was performed by adding 5 ml of POD chromogenic substrate (TMB, product number: T0565, Sigma). […] Moreover, the β-APP/huLYS protein complex likely serves as a diagnostic marker of Alzheimer's disease.

[2] = molecular target: T2, chicken lysozyme (Gallus gallus, UniProt P00698); experiment: Far Western blot lysozyme-protein interaction assay; format: binding; parameters: Purified chicken egg white lysozyme; purchased Sigma-Aldrich (Madrid, Spain); host or cells: chicken egg white; conditions: 1, 5 and 10 μg immobilized lysozyme per lane; washes with 0.05% Tween 20
Method: (§1) In order to test this hypothesis, a Far-Western blot lysozyme-protein interaction assay was performed. The assay is summarized in FIG. 5 and comprises generally the following three steps: (1) immobilization of purified lysozyme onto a membrane; (2) probing of the membrane with a ligand likely to bind directly to the lysozyme; and (3) immunodetection of the bound lysozyme-ligand. A detailed experimental procedure is presented below.
(§2) Purified chicken egg white lysozyme and human breast milk lysozyme were purchased from Sigma-Aldrich (Madrid, Spain). Two series of aliquot fractions containing 1 μg, 5 μg, and 10 μg of purified lysozyme and a protein molecular weight marker (SeeBlue Plus II™, Invitrogen SA, Barcelona, Spain) were separated electrophoretically through a 4-12% SDS-PAGE gel using the conditions recommended by the supplier (Invitrogen). […] The presence of lysozyme immobilized onto the PVDF membrane was assessed by staining for 1 minute with Ponceau S stain (Sigma-Aldrich, Madrid, Spain), and then destained by vigorous washing for 5 minutes with desionized water. The membrane was divided in two, each portion containing a protein ladder and three quantities of chicken or human lysozyme (1 μg, 5 μg and 10 μg per lane). […]

[3] = molecular target: T1, lysozyme; experiment: Lysozyme inhibition assay (EnzCheck, fluorescein-labeled Micrococcus lysodeikticus); format: biochemical
Method: (§3) To test this hypothesis, the antibacterial activity of both human and chicken lysozyme, in the presence or absence of GST-Tp17, was assayed using an EnzCheck® lysozyme assay kit (Molecular Probes, Eugene, Oreg.). The assay comprises the use of Fluorescein-labeled Micrococcus lysodeikticus bacterial cells as a fluorescent substrate of lysozyme. In this Gram positive bacterium, the peptidoglycan layer is directly accessible to lysozyme, and has been Fluorescein-labeled such that fluorescence is naturally quenched. Upon lysozyme hydrolysis, quenching is relieved and fluorescein is released in a quantity that is proportional to lysozyme activity. The following experimental protocol was used.
(§4) A typical 100 μl reaction consisted of 25 μl of lysozyme solution (10 units for chicken lysozyme or 50 units for human lysozyme, dissolved in deionized water), 25 μl of the test protein solution and 50 μl of a suspension of fluorescein-labeled Micrococcus lysodeikticus (50 μg/ml). The reaction was incubated for 45 minutes at 37° C. and the fluorescence was measured (λexc.=485 nm; λemi.=520 nm) using a fluorescence multi-well plate reader model FLx800 (Bio TEK instruments, Winoosky, Vt.) equipped with KC junior data acquisition software (Bio TEK Instruments, Winoosky, Vt.). Each experimental point was expressed as the mean and standard deviation corresponding to the reading of three independent wells. Wells containing 50 μl of deoinized water and 50 μl of Fluorescein-labeled Micrococcus lysodeikticus suspension were used as a blank. Two fold serial dilutions of test protein were used to vary the concentration of the test protein from 83.5 to 1.3 μg/well.

[4] = molecular target: T2, chicken lysozyme; experiment: as above; format: biochemical
Method: as §3, §4

[5] = molecular target: T1, lysozyme; experiment: Far Western blot lysozyme-protein interaction assay; format: binding; conditions: 1, 5 and 10 μg immobilized lysozyme per lane; washes with 0.05% Tween 20
Method: as §1, §2

[6] = tested on: Micrococcus lysodeikticus; conditions: pH 6.24, 25° C., Micrococcus lysodeikticus suspension; cited from earlier work
[7] = tested on: GST-Tp17 or Tp17-HIS; experiment: Antibacterial activity of lysozymes with or without Tp17 (EnzCheck); format: biochemical, Treponema pallidum; conditions: 1 unit human lysozyme or 230 units rLysozyme; 10 μg GST-Tp17 or Tp17-HIS
Description: In that context, we compared the antibacterial activity of human lysozyme (Ventria Bioscience, Sacramento, Calif., USA) and rLysozyme™ using the EnzCheck Lysozyme assay (E-22013; Molecular Probes, Eugene, Oreg.). We first determined that under the manufacturer's prescribed assay conditions, 1 unit of human lysozyme produced the same intensity of fluorescence as 230 units of rLysozyme™. Next, we measured the fluorescence intensity of either 1 unit of human lysozyme or 230 units of rLysozyme™, in the presence or absence of 10 μg of either GST-Tp17 or Tp17-HIS. […] As a consequence, rLysozyme™ represents a novel and promising antimicrobial drug that could eventually substitute for chicken lysozyme in various therapeutic preparations intended for human and animal use. Additionally, it can be used as an antiseptic and/or as a food preservative.

[8] = tested on: anti-T. pallidum antibodies in human sera; experiment: Syphilis ELISA (Bioelisa, second and third generation format) with added lysozyme
Description: Syphilis screening is routinely performed using enzyme-linked immunosorbent assays (ELISA) kits. These kits detect the binding of anti-syphilis antibodies to T. pallidum antigens immobilized in the wells of a microtiter plate. Detection of the binding of anti-syphilis antibodies to the plate is normally carried out by means of either an enzyme-labeled antiserum directed against human Fc antibody chains (second generation kit) or an enzyme-labeled T. pallidum antigen (third generation kit).
All the reagents used in this study are provided by the commercial Bioelisa Syphilis 3.0 detection kit (Biokit S.A., Lliça d'Amunt, Spain). The protocol used is that recommended in the package insert of the kit. Briefly, serum or plasma samples are added to the wells of a microtiter plate. If antibodies specific for T. pallidum are present in the sample, they form stable complexes with the antigens on the well. After washing to remove the unbound material, a rabbit conjugate anti-human IgG and anti-human IgM labelled with horseradish peroxidase is added and, if the antigen/antibody complex is present, the conjugate binds to the complex. After a second wash, an enzyme substrate solution containing a chromogen is added. This solution develops a blue color if the sample is positive. The blue color changes to yellow after blocking the reaction with sulphuric acid. […]

[9] = test protein 83.5 to 1.3 μg/well

T2 sequence (P00698 19-147): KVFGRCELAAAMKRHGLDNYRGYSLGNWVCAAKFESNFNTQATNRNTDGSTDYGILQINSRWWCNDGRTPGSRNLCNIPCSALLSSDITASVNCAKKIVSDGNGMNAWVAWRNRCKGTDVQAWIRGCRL
Chain of GST-Tp17 or Tp17-HIS (P29722 23-156 limits assumed): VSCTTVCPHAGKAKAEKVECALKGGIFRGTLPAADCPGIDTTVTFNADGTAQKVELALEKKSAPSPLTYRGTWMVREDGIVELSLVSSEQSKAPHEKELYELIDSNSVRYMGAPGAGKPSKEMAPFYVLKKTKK

## sAPPα: longer recombinant fragment of β-APP derived from the APP695 isoform (Sigma S9564)
[1]
  binding of POD-labeled human lysozyme (huLYS): bound

## GST-Tp17: recombinant fusion of glutathione S-transferase and Treponema pallidum 17 kDa antigen Tp17 (SEQ ID NO:29)
[2]
  binding to chicken lysozyme: detected binding
[3]; as little as 1.3 μg/well, 50 units human lysozyme
  inhibition of acetyl muramidase activity of human lysozyme: > 85%
[4]; as little as 1.3 μg/well, 10 units chicken lysozyme
  inhibition of acetyl muramidase activity of chicken lysozyme: > 85%
[5]
  binding to human lysozyme: detected binding

## recombinant human transgenic rice lysozyme: purified recombinant human lysozyme from transgenic rice (159-53LZ-90P; Ventria Bioscience)
[6]
  specific activity: 187,000 units/mg protein

B1: GST-Tp47: control protein, GST fusion of T. pallidum Tp47 antigen (protein)
chain: CGSSHHETHYGYATLSYADYWAGELGQSRDVLLAGNAEADRAGDLDAGMFDAVSRATHGHGAFRQQFQYAVEVLGEKVLSKQETEDSRGRKKWEYETDPSVTKMVRASASFQDLGEDGEIKFEAVEGAVALADRASSFMVDSEEYKITNVKVHGMKFVPVAVPHELKGIAKEKFHFVEDSRVTENTNGLKTMLTEDSFSARKVSSMESPHDLVVDTVGTGYHSRFGSDAEASVMLKRADGSELSHREFIDYVMNFNTVRYDYYGDDASYTNLMASYGTKHSADSWWKTGRVPRISCGINYGFDRFKGSGPGYYRLTLIANGYRDVVADVRFLPKYEGNIDIGLKGKVLTIGGADAETLMDAAVDVFADGQPKLVSDQAVSLGQNVLSADFTPGTEYTVEVRFKEFGSVRAKVVAQ
modifications: left off: a dimerising Fc or GST
notes: control protein, GST fusion of T. pallidum Tp47 antigen
[2]
  binding to chicken lysozyme: No signal was detected
[3]; [9]
  inhibitory effect on human lysozyme acetyl muramidase activity (in words): did not exert any inhibitory effect
[4]; [9]
  inhibitory effect on chicken lysozyme acetyl muramidase activity (in words): did not exert any inhibitory effect
[5]
  binding to human lysozyme: No signal was detected

B2: human lysozyme: human lysozyme (NP_000230); breast milk-derived in Example 8, recombinant (Ventria) in Examples 10 and 16 (protein, listed as Homo sapiens)
chain: KVFERCELARTLKRLGMDGYRGISLANWMCLAKWESGYNTRATNYNAGDRSTDYGIFQINSRYWCNDGKTPGAVNACHLSCSALLQDNIADAVACAKRVVRDPQGIRAWVAWRNRCQNRDVRQYVQGCGV
[7]
  susceptibility of antibacterial activity to inhibition by GST-Tp17 or Tp17-HIS: strongly inhibited
[8]; second generation format, lysozyme added to the plate at 2.86 μg/ml, syphilis-positive human sera
  increase in signal intensity: about 20%
[8]; third generation format, lysozyme in sample dilution buffer (10.8 μg/ml) and conjugate dilution buffer (1.08 μg/ml), 3 out of 4 sera
  increase in signal intensity: about 200%
